This is an account of results in US20090074782A1 (ONCOMED PHARMACEUTICALS, published 2009).

B1: FZD10-Fc (Fc fusion, UniProt Q9ULW2 21-154, looked up)
chain: ISSMDMERPGDGKCQPIEIPMCKDIGYNMTRMPNLMGHENQREAAIQLHEFAPLVEYGCHGHLRFFLCSLYAPMCTEQVSTPIPACRVMCEQARLKCSPIMEQFNFKWPDSLDCRKLPNKNDPNYLCMEAPNNG
notes: One of the 'various FZD-Fc constructs, including FZD1-10'; also called soluble FZD10; not shown: Fc
B2: FZD3-Fc (Fc fusion, UniProt Q9NPG1 23-143, looked up)
chain: HSLFSCEPITLRMCQDLPYNTTFMPNLLNHYDQQTAALAMEPFHPMVNLDCSRDFRPFLCALYAPICMEYGRVTLPCRRLCQRAYSECSKLMEMFGVPWPEDMECSRFPDCDEPYPRLVDL
notes: One of the 'various FZD-Fc constructs, including FZD1-10'; not shown: Fc
B3: RSPO1-CD4™ (ligand)
chain: SRGIKGKRQRRISAEGSQACAKGCELCSEVNGCLKCSPKLFILLERNDIRQVGVCLPSCPPGYFDARNPDMNKCIKCKIEHCEACFSHNFCTKCKEGLYLHKGRCYPACPEGSSAANGTMECSSPAQCEMSEWSPWGPCSKKQQLCGFRRGSEERTRRVLHAPVGDHAACSDTKETRRCTVRRVPCPEGQKRRKGGQGRRENANRNLARKESKEAGAGSRRRKGQQQQQQQGTVGPLTSAGPA
notes: domain: transmembrane domain; Transiently expressed on HEK 293 cells together with GFP; also called cell-surface RSPO1; RSPO1-CD4TM; not shown: transmembrane domain of CD4
B4: FZD5-Fc (Fc fusion, UniProt Q13467 27-157, looked up)
chain: ASKAPVCQEITVPMCRGIGYNLTHMPNQFNHDTQDEAGLEVHQFWPLVEIQCSPDLRFFLCSMYTPICLPDYHKPLPPCRSVCERAKAGCSPLMRQYGFAWPERMSCDRLPVLGRDAEVLCMDYNRSEATT
notes: as for B2
B5: FZD9-Fc (Fc fusion, UniProt O00144 23-159, looked up)
chain: LEIGRFDPERGRGAAPCQAVEIPMCRGIGYNLTRMPNLLGHTSQGEAAAELAEFAPLVQYGCHSHLRFFLCSLYAPMCTDQVSTPIPACRPMCEQARLRCAPIMEQFNFGWPDSLDCARLPTRNDPHALCMEAPENA
notes: as for B2
B6: FZD6-Fc (Fc fusion, UniProt O60353 19-146, looked up)
chain: HSLFTCEPITVPRCMKMAYNMTFFPNLMGHYDQSIAAVEMEHFLPLANLECSPNIETFLCKAFVPTCIEQIHVVPPCRKLCEKVYSDCKKLIDTFGIRWPEELECDRLQYCDETVPVTFDPHTEFLGP
notes: as for B2
B7: FZD8-Fc (Fc fusion, UniProt Q9H461 28-158, looked up)
chain: ASAKELACQEITVPLCKGIGYNYTYMPNQFNHDTQDEAGLEVHQFWPLVEIQCSPDLKFFLCSMYTPICLEDYKKPLPPCRSVCERAKAGCAPLMRQYGFAWPDRMRCDRLPEQGNPDTLCMDYNRTDLTT
notes: One of the 'various FZD-Fc constructs, including FZD1-10'; also used against FLAG-LGR5-CD4™ cells; also called soluble FZD8; not shown: Fc
B8: FZD4-Fc (Fc fusion, UniProt Q9ULV1 40-170, looked up)
chain: EEERRCDPIRISMCQNLGYNVTKMPNLVGHELQTDAELQLTTFTPLIQYGCSSQLQFFLCSVYVPMCTEKINIPIGPCGGMCLSVKRRCEPVLKEFGFAWPESLNCSKFPPQNDHNHMCMEGPGDEEVPLP
notes: as for B2

The target in assay [1] is B3. The experiment in a line: FACS, Fc fusion on HEK 293 cells transfected with RSPO1-CD4™ and GFP. As for the experimental part: (§1) To determine the mechanism by which RSPO1 activates beta-catenin signaling, FACS analysis was used to assess binding between RSPO1 and LGR5. In certain embodiments, binding between soluble LGR5 and cell-surface RSPO1 was determined. A cell-surface RSPO1 protein was generated by ligating full-length human RSPO1 to the transmembrane domain of CD4 using standard recombinant DNA techniques (RSPO1-CD4™). HEK 293 cells were transiently transfected RSPO1-CD4™ and GFP. After 48 hours, cells were suspended in ice cold PBS containing 2% FCS and then incubated on ice in the presence of LGR5-Fc, LRP6-ECD-Fc (containing the extracellular domain of human LRP6 fused to an Fc domain), LRP6E1-2-Fc (containing amino acids 1-629 of human LRP6 fused to an Fc domain), or various FZD-Fc constructs, including FZD1-10. […] Only a weak interaction between RSPO1 and the WNT co-receptor LRP6 was detected.

For assay [2], the target named is FZD7-Fc (UniProt O75084 33-170). The assay is described as above. As for the experimental part:
as §1

Assay [3] addresses T1, FZD1-Fc (UniProt Q9UP38 87-237).
T1 construct: One of the 'various FZD-Fc constructs, including FZD1-10'; not shown: Fc
Described as above. As for the experimental part: as §1

Assay [4] has as its target FZD2-Fc (UniProt Q14332 24-159). The description is as above. As for the experimental part: as §1
Assay [5] concerns the target T2, FLAG-LGR5-CD4™ (human, UniProt O75473 22-564).
T2 construct: domain: transmembrane domain; Transiently expressed on HEK 293 cells together with GFP; also called variant cell-surface LGR5 protein; cell-associated LGR5 construct; not shown: N-terminal FLAG tag; transmembrane domain of CD4
T2 sequence: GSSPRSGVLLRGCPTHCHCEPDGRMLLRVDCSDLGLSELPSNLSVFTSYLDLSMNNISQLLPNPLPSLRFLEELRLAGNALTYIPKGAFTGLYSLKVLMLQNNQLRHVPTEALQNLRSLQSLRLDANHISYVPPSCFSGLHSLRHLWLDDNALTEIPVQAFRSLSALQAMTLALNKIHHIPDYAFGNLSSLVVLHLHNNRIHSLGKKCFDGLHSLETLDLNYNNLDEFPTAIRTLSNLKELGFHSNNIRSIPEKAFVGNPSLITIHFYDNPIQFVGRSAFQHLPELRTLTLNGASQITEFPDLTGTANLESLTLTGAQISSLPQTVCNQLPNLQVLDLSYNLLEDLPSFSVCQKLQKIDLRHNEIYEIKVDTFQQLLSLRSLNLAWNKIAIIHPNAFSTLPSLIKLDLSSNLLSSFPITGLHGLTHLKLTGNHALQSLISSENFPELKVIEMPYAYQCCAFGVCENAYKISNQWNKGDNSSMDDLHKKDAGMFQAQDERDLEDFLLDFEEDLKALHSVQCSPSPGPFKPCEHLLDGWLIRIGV
The experiment in a line: FACS, Fc fusion on HEK 293 cells transfected with FLAG-LGR5-CD4™ and GFP, with heparin. As for the experimental part:
In certain embodiments, binding between soluble RSPO1 and cell-surface LGR5 was determined. A variant cell-surface LGR5 protein was generated by ligating amino acids 22-564 of LGR5 to an N-terminal FLAG tag and to the transmembrane domain of CD4 using standard recombinant DNA techniques (FLAG-LGR5-CD4™). HEK 293 cells were transiently transfected with FLAG-LGR5-CD4™ and GFP. After 48 hours, cells were suspended in ice cold PBS containing 2% FCS and heparin and then incubated on ice in the presence of RSPO1-Fc, FZD8-Fc, or a FLAG antibody as a positive control.

Take B1: in assay [1], the binding result was “no binding”.

As for B2, the binding result in assay [1] is given as “no binding”.

With B3, the binding result in assay [2], in assay [3] and in assay [4] was “no binding” each time.

Take B4: in assay [1], the binding result is listed as “no binding”.

For B5, the binding result in assay [1] is listed as “no binding”.

Take B6: the binding result in assay [1] was “no binding”.

Turning to B7, the binding result in assay [1] and in assay [5] was “no binding” each time.

Regarding B8, in assay [1], the binding result is “no binding”.
